B10: FICD^S288C-H363A-C421S-TMR (dimerisation-sensitive fluorescent probe) (domain or fragment, human, UniProt Q9BVA6 104-445, looked up)
chain: LEARAALNQALEMKRQGKREKAQKLFMHALKMDPDFVDALTEFGIFSEEDKDIIQADYLYTRALTISPYHEKALVNRDRTLPLVEEIDQRYFSIIDSKVKKVMSIPKGNSALRRVMEETYYHHIYHTVAIEGNTLTLSEIRHILETRYAVPGKSLEEQNEVIGMHAAMKYINTTLVSRIGSVTICDVLEIHRRVLGYVDPVEAGRFRTTQVLVGHHIPPHPQDVEKQMQEFVQWLNSEEAMNLHPVEFAALAHYKLVYIAPFIDGNGRTSRLLMNLILMQAGYPPITIRKEQRSDYYHVLEAANEGDVRPFIRFIAKSTETTLDTLLFATTEYSVALPEAQP
modifications: tetramethylrhodamine (TMR-5-maleimide) on Cys288 (labelling efficiency 41%); unlabelled cysteines quenched with NEM
notes: FICD (HYPE), human, residues 104-445; also called FICD-TMR; UK 2473

Assays:
[1] = target: B10; test: other fluorescence titration; 2.5 nM FICD^S288C-H363A-C421S-TMR with unlabelled FICD or nucleotide as titrant in HKTx, 45 min at 10°C; de-quenching of TMR fluorescence (excitation 535 nm, emission 585 nm); details: both partners purified
[2] = target: T1, biotinylated-AviTag-haBiP^T229A-V461F (Chinese hamster, UniProt G3I8R9 19-654, T229A | V461F, biotin on the AviTag); test: BLI; biotinylated BiP^T229A-V461F immobilised on streptavidin biosensors and saturated with 2 mM ATP; FICD His363Ala variants at 250 nM, association or dissociation without nucleotide or with ATP 8 mM or ADP 2 mM; HKM plus 0.05% Triton X-100, 30°C; details: both partners purified
T1 construct: BiP, Chinese hamster; Immobilised nucleotide-free and, where indicated, saturated with 2 mM ATP on the sensor; also called BiP^T229A-V461F:Apo; BiP:ATP

[3] = target: T2, biotinylated-AviTag-FICD^H363A (human, UniProt Q9BVA6 104-445, H363A, biotin on the AviTag); test: BLI; 3 nM biotinylated-AviTag-FICD^H363A incubated 10 min at 25°C with 300 nM FICD^H363A, hetero-labelled dimers loaded on streptavidin biosensors; dissociation into HKTx with or without 5 mM nucleotide; signal of sensors incubated with FICD^L258D-H363A subtracted; dimer to monomers; details: both partners purified
T2 construct: FICD (HYPE), human, residues 104-445 (the limits are those told for all purified FICD proteins); also called N-terminally biotinylated FICD^H363A; UK 2422; not shown: AviTag, N-terminal, kept
T2 sequence (looked up): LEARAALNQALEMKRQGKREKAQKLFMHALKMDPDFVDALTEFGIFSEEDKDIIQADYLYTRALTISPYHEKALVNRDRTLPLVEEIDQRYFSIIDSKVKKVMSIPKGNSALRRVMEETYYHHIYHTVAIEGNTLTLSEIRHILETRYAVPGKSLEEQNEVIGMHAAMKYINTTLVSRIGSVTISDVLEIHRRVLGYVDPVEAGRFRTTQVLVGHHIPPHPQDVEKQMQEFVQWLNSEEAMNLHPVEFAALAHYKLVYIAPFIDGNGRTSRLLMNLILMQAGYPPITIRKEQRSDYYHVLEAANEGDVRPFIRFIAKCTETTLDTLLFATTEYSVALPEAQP

[4] = target: the molecule itself; test: SEC; analytical SEC-3 HPLC column in HKMC (50 mM HEPES-KOH pH 7.4, 150 mM KCl, 10 mM MgCl2, 1 mM CaCl2), 25°C; proteins at 20 μM, or at 0.2-50 μM after 16 h at 25°C; approximate Kd from elution peak time against concentration; dimer to monomers
[5] = target: the molecule itself; test: crystal structure; sitting drop vapour diffusion, protein at 9 mg/ml in 10 mM Tris-HCl pH 8.0, 150 mM NaCl, 1 mM TCEP, with 10 mM MgATP or MgAMPPNP where applicable
[6] = target: the molecule itself; test: other fluorescence titration; 2.5 nM FICD^S288C-H363A-C421S-TMR with unlabelled FICD or nucleotide as titrant in HKTx, 45 min at 10°C; de-quenching of TMR fluorescence (excitation 535 nm, emission 585 nm)

T1 sequence (G3I8R9 19-654 T229A/V461F): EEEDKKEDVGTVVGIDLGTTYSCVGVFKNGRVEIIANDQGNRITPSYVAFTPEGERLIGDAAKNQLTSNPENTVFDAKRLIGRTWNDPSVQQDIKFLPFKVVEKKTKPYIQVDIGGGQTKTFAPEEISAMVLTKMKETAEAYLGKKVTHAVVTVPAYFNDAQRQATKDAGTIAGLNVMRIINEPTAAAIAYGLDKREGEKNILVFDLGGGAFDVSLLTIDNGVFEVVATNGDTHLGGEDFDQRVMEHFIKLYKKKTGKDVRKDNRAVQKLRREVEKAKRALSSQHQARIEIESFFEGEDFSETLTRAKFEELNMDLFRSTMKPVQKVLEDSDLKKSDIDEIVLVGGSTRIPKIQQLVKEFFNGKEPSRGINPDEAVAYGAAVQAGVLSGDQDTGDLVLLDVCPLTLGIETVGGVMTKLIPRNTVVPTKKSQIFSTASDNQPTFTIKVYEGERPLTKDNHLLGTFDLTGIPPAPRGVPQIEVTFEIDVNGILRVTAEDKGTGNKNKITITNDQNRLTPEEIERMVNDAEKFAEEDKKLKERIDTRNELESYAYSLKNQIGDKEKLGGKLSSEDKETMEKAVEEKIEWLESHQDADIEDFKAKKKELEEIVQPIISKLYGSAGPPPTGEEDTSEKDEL

B1: catalytically inactive, dimeric FICD^H363A (residues 104-445) (domain or fragment, human, UniProt Q9BVA6 104-445, looked up)
chain: LEARAALNQALEMKRQGKREKAQKLFMHALKMDPDFVDALTEFGIFSEEDKDIIQADYLYTRALTISPYHEKALVNRDRTLPLVEEIDQRYFSIIDSKVKKVMSIPKGNSALRRVMEETYYHHIYHTVAIEGNTLTLSEIRHILETRYAVPGKSLEEQNEVIGMHAAMKYINTTLVSRIGSVTISDVLEIHRRVLGYVDPVEAGRFRTTQVLVGHHIPPHPQDVEKQMQEFVQWLNSEEAMNLHPVEFAALAHYKLVYIAPFIDGNGRTSRLLMNLILMQAGYPPITIRKEQRSDYYHVLEAANEGDVRPFIRFIAKCTETTLDTLLFATTEYSVALPEAQP
notes: FICD (HYPE), human, residues 104-445; Dimeric as analyte on BiP; in the rows with m14 and m15 one of its protomers pairs with one labelled protomer; also called dFICD^H363A; UK 1954; source: E. coli T7 Express lysY/Iq, purified (Ni-NTA, on-column Ulp1 cleavage, anion exchange, SEC)
binding result [1]: binds | binding result [2]: binds | fold increase of the dimer dissociation rate with 5 mM ATP against no nucleotide [3]: 3 fold

B2: FICD^E242A (residues 104-445) (domain or fragment, human, UniProt Q9BVA6 104-445, looked up)
chain: LEARAALNQALEMKRQGKREKAQKLFMHALKMDPDFVDALTEFGIFSEEDKDIIQADYLYTRALTISPYHEKALVNRDRTLPLVEEIDQRYFSIIDSKVKKVMSIPKGNSALRRVMEETYYHHIYHTVAIEGNTLTLSAIRHILETRYAVPGKSLEEQNEVIGMHAAMKYINTTLVSRIGSVTISDVLEIHRRVLGYVDPVEAGRFRTTQVLVGHHIPPHPQDVEKQMQEFVQWLNSEEAMNLHPVEFAALAHYKLVYIHPFIDGNGRTSRLLMNLILMQAGYPPITIRKEQRSDYYHVLEAANEGDVRPFIRFIAKCTETTLDTLLFATTEYSVALPEAQP
notes: FICD (HYPE), human, residues 104-445; also called dimer relay mutant; source: E. coli T7 Express lysY/Iq, purified (Ni-NTA, on-column Ulp1 cleavage, anion exchange, SEC)
Kd [4]: < 0.4 µM

B3: non-oxidised FICD^A252C-C421S (residues 104-445) (domain or fragment, human, UniProt Q9BVA6 104-445, looked up)
chain: LEARAALNQALEMKRQGKREKAQKLFMHALKMDPDFVDALTEFGIFSEEDKDIIQADYLYTRALTISPYHEKALVNRDRTLPLVEEIDQRYFSIIDSKVKKVMSIPKGNSALRRVMEETYYHHIYHTVAIEGNTLTLSEIRHILETRYCVPGKSLEEQNEVIGMHAAMKYINTTLVSRIGSVTISDVLEIHRRVLGYVDPVEAGRFRTTQVLVGHHIPPHPQDVEKQMQEFVQWLNSEEAMNLHPVEFAALAHYKLVYIHPFIDGNGRTSRLLMNLILMQAGYPPITIRKEQRSDYYHVLEAANEGDVRPFIRFIAKSTETTLDTLLFATTEYSVALPEAQP
notes: FICD (HYPE), human, residues 104-445; also called non-disulphide-bonded FICD^A252C-C421S; UK 2219; source: E. coli T7 Express lysY/Iq, purified; a separate preparation not subjected to oxidation with glutathione
binding result [4]: binds

B4: FICD^K256A (residues 104-445) (domain or fragment, human, UniProt Q9BVA6 104-445, looked up)
chain: LEARAALNQALEMKRQGKREKAQKLFMHALKMDPDFVDALTEFGIFSEEDKDIIQADYLYTRALTISPYHEKALVNRDRTLPLVEEIDQRYFSIIDSKVKKVMSIPKGNSALRRVMEETYYHHIYHTVAIEGNTLTLSEIRHILETRYAVPGASLEEQNEVIGMHAAMKYINTTLVSRIGSVTISDVLEIHRRVLGYVDPVEAGRFRTTQVLVGHHIPPHPQDVEKQMQEFVQWLNSEEAMNLHPVEFAALAHYKLVYIHPFIDGNGRTSRLLMNLILMQAGYPPITIRKEQRSDYYHVLEAANEGDVRPFIRFIAKCTETTLDTLLFATTEYSVALPEAQP
notes: FICD (HYPE), human, residues 104-445; also called dimeric dimer relay mutant FICD^K256A; source: E. coli T7 Express lysY/Iq, purified; gel-filtered into 10 mM Tris-HCl pH 8.0, 150 mM NaCl, 1 mM TCEP for crystallisation
stoichiometry N [5]: 2 molecules in the biological unit

B5: FICD^K256S (residues 104-445) (domain or fragment, human, UniProt Q9BVA6 104-445, looked up)
chain: LEARAALNQALEMKRQGKREKAQKLFMHALKMDPDFVDALTEFGIFSEEDKDIIQADYLYTRALTISPYHEKALVNRDRTLPLVEEIDQRYFSIIDSKVKKVMSIPKGNSALRRVMEETYYHHIYHTVAIEGNTLTLSEIRHILETRYAVPGSSLEEQNEVIGMHAAMKYINTTLVSRIGSVTISDVLEIHRRVLGYVDPVEAGRFRTTQVLVGHHIPPHPQDVEKQMQEFVQWLNSEEAMNLHPVEFAALAHYKLVYIHPFIDGNGRTSRLLMNLILMQAGYPPITIRKEQRSDYYHVLEAANEGDVRPFIRFIAKCTETTLDTLLFATTEYSVALPEAQP
notes: FICD (HYPE), human, residues 104-445; also called Lys256Ser; dimer relay mutant; source: E. coli T7 Express lysY/Iq, purified (Ni-NTA, on-column Ulp1 cleavage, anion exchange, SEC)
Kd [4]: < 0.4 µM | stoichiometry N [5]: 2 molecules in the biological unit

B6: FICD^G299S (residues 104-445) (domain or fragment, human, UniProt Q9BVA6 104-445, looked up)
chain: LEARAALNQALEMKRQGKREKAQKLFMHALKMDPDFVDALTEFGIFSEEDKDIIQADYLYTRALTISPYHEKALVNRDRTLPLVEEIDQRYFSIIDSKVKKVMSIPKGNSALRRVMEETYYHHIYHTVAIEGNTLTLSEIRHILETRYAVPGKSLEEQNEVIGMHAAMKYINTTLVSRIGSVTISDVLEIHRRVLSYVDPVEAGRFRTTQVLVGHHIPPHPQDVEKQMQEFVQWLNSEEAMNLHPVEFAALAHYKLVYIHPFIDGNGRTSRLLMNLILMQAGYPPITIRKEQRSDYYHVLEAANEGDVRPFIRFIAKCTETTLDTLLFATTEYSVALPEAQP
notes: FICD (HYPE), human, residues 104-445; also called Gly299Ser; source: E. coli T7 Express lysY/Iq, purified (Ni-NTA, on-column Ulp1 cleavage, anion exchange, SEC)
Kd [4]: 9.5 µM

B7: cysteine-free FICD^C421S (residues 104-445) (domain or fragment, human, UniProt Q9BVA6 104-445, looked up)
chain: LEARAALNQALEMKRQGKREKAQKLFMHALKMDPDFVDALTEFGIFSEEDKDIIQADYLYTRALTISPYHEKALVNRDRTLPLVEEIDQRYFSIIDSKVKKVMSIPKGNSALRRVMEETYYHHIYHTVAIEGNTLTLSEIRHILETRYAVPGKSLEEQNEVIGMHAAMKYINTTLVSRIGSVTISDVLEIHRRVLGYVDPVEAGRFRTTQVLVGHHIPPHPQDVEKQMQEFVQWLNSEEAMNLHPVEFAALAHYKLVYIHPFIDGNGRTSRLLMNLILMQAGYPPITIRKEQRSDYYHVLEAANEGDVRPFIRFIAKSTETTLDTLLFATTEYSVALPEAQP
notes: FICD (HYPE), human, residues 104-445; also called UK 2161; source: E. coli T7 Express lysY/Iq, purified by the protocol of the disulphide-linked dimers
binding result [4]: binds

B8: wild-type FICD (amino acid residues 104-445) (domain or fragment, human, UniProt Q9BVA6 104-445, looked up)
chain: LEARAALNQALEMKRQGKREKAQKLFMHALKMDPDFVDALTEFGIFSEEDKDIIQADYLYTRALTISPYHEKALVNRDRTLPLVEEIDQRYFSIIDSKVKKVMSIPKGNSALRRVMEETYYHHIYHTVAIEGNTLTLSEIRHILETRYAVPGKSLEEQNEVIGMHAAMKYINTTLVSRIGSVTISDVLEIHRRVLGYVDPVEAGRFRTTQVLVGHHIPPHPQDVEKQMQEFVQWLNSEEAMNLHPVEFAALAHYKLVYIHPFIDGNGRTSRLLMNLILMQAGYPPITIRKEQRSDYYHVLEAANEGDVRPFIRFIAKCTETTLDTLLFATTEYSVALPEAQP
notes: FICD (HYPE), human, residues 104-445; Homodimer in solution; its rows measure this dimerisation, so copies is left empty; also called HYPE; dFICD; source: E. coli T7 Express lysY/Iq, purified (Ni-NTA, on-column Ulp1 cleavage, anion exchange, SEC)
stoichiometry N [4]: 2 | stoichiometry N [5]: 2 molecules in the biological unit

B9: catalytically inactive, monomeric FICD^L258D-H363A (residues 104-445) (domain or fragment, human, UniProt Q9BVA6 104-445, looked up)
chain: LEARAALNQALEMKRQGKREKAQKLFMHALKMDPDFVDALTEFGIFSEEDKDIIQADYLYTRALTISPYHEKALVNRDRTLPLVEEIDQRYFSIIDSKVKKVMSIPKGNSALRRVMEETYYHHIYHTVAIEGNTLTLSEIRHILETRYAVPGKSDEEQNEVIGMHAAMKYINTTLVSRIGSVTISDVLEIHRRVLGYVDPVEAGRFRTTQVLVGHHIPPHPQDVEKQMQEFVQWLNSEEAMNLHPVEFAALAHYKLVYIAPFIDGNGRTSRLLMNLILMQAGYPPITIRKEQRSDYYHVLEAANEGDVRPFIRFIAKCTETTLDTLLFATTEYSVALPEAQP
notes: FICD (HYPE), human, residues 104-445; also called mFICD^H363A; source: E. coli T7 Express lysY/Iq, purified (Ni-NTA, on-column Ulp1 cleavage, anion exchange, SEC)
binding result [2]: binds

B10
binding result [6]: binds

Source: publication PMC6826200, “An oligomeric state‐dependent switch in the ER enzyme FICD regulates AMPylation and deAMPylation of BiP” (The EMBO Journal, 2019)
